Experimental findings from patent US8304565B2, “PEG-lipid conjugates for liposomes and drug delivery” (priority 2008, dated 2012) are described below.

Series [1] can be described thus: In vitro stability of selective linkers at low pH. It is filed as physicochemical. Particulars: 10 mM phosphate buffer (pH 2.1), approximately 0.05 g/mL, 37°, GPC with RI detector. As for the experimental part: Three DAG-PEGs with equivalent PEG chains and fatty acids, but different linkages (shown in Table 5) were tested for stability at low pH, in the range of 1.4 to 2.1. Table 5 includes alternate names for each of the three DAG-PEGs tested.
The selected DAG-PEGs were mixed with 10 mM phosphate buffer (pH 2.1) at final concentrations approximately 0.05 g/mL and incubated at 37° . The sample solutions were tested on a GPC column with RI detector and the breakdown fragments were further confirmed by LC-MS/MS.
In FIG. 1, (1) is PEG (n=12)-3-acetyl-1,2-rac-dioleoylglucerol, (2) is PEG (n=12)-3-acetamido-dioleoylglycerol and (3) is PEG (n=12)-3-N-(mercaptomethyl)-Propionamido-1,2-rac-dioleoylglucerol.

Series [2] is described as follows: Spontaneous liposome formation of DAG-PEG lipids. It is filed as physicochemical. From the text:
Herein, we describe biologically degradable linear PEG analogs carrying diacylglycerol lipid groups. These new molecules belong to a class referred to as diacylglycerol-polyethyleneglycols (DAG-PEGs). DAG-PEGs having certain properties form liposomes spontaneously upon mixing with an aqueous solution. Briefly, DAG-PEGs or lipid mixtures including DAG-PEGs must have packing parameters that allow liposome formation. Generally, Pa is preferably between about 0.84 and 0.88, and Pv is preferably between about 0.88 and 0.93. Also, the DAG-PEGs or lipid mixtures including DAG-PEGs must have a melting point below the temperature of liposome formation. If a DAG-PEG meets these conditions, it will form liposomes spontaneously (without external energy inputs). Spontaneous liposomes and DAG-PEGs are described in U.S. Pat. No. […], which is hereby incorporated by reference. The particular DAG-PEGs described in U.S. Pat. No. […] utilized a single oxy (alternatively called oxyl) linkage between the PEG and the glycerol backbone.
A number of new DAG-PEGs were synthesized and tested. Most of the combinations of PEG chains and fatty acids were chosen because it was known or expected that such DAG-PEGs with oxy linkages would have packing parameters and melting points favorable for the formation of liposomes.

In series [3] the test system is human red blood cells. Nature of the series: Hemolysis of human red blood cells. The format is cell-based. Particulars: equivalent concentrations (20 mmol), absorbance at 413 nm. The protocol: In addition, hemolysis of human red blood cells was performed to provide a more quantitative cytotoxicity evaluation of the PEG-grafted lipids. Cell lysis caused by cytotoxic material leads to release of heme into solution, which was detected by absorbance at 413 nm and compared to control experiments performed in the absence of the synthetic material. Results in Table 6 for equivalent concentrations (20 mmol) of sodium lauryl sulfate (SLS) and mPEG-600 were shown for the comparison.

For series [4] the following is noted: mouse, in vivo, iv, 10 mg/kg.
Method: Groups of three male mice (B6D2F1) were used for the studies. Pharmacokinetics (PK) were performed on heparinized mouse plasma samples obtained typically at 0 hr, 0.08 hr, 0.25 hr, 0.5 hr, 1 hr, 2 hr, 4 hr, 8 hr, 16 hr and 24 hr after the bolus IV injection or oral feeding for posaconazole and at 0 hr, 0.08 hr, 0.25 hr, 0.5 hr, 1 hr, 2 hr, 4 hr, 8 hr, 16 hr and 24 hr for itraconazole. Samples were analyzed using a HPLC-MS method. To determine the level of each drug, the drug was first isolated from plasma with a sample pre-treatment. Acetonitrile were used to remove proteins in samples. An isocratic HPLC-MS method was then used to separate the drugs from any potential interference. Drug levels were measured by MS detection with a multiple reaction monitoring (MRM) mode. PK data was analyzed using the WinNonlin program (ver. 5.2, Pharsight) compartmental models of analysis.
The drug was administered intravenously and the dosing strength was 10 mg/kg.

With “PEG (n=12)-3-acetyl-1,2-rac-dioleoylglycerol [PEG-12-Ac2-GDO]”, the “stability at low pH” value in series [1] is recorded as “stable”. The “Spontaneous Liposome at 20° C.” value in series [2] (20° C.) was “Yes”. The “Spontaneous Liposome at 37° C.” value in series [2] (37° C.) is on record as “Yes”. Consider `CCCCCCCCCCCCOS(=O)(=O)[O-].[Na+]` [SLS, sodium lauryl sulfate], for which the “% Hemolysis” value in series [3] is recorded as 80%. As for “PEG (n=12)-3-acetamido-dioleoylglycerol [PEG-12-N3-GDO]”, the “stability at low pH” value in series [1] was “relatively stable”. Regarding POPC, in series [4], the AUC – broadly, the area under the concentration-time curve, a measure of exposure – came out at 164.1 µg·h/mL. Turning to “PEG (n=12)-3-N-(mercaptomethyl)-Propionamido-1,2-rac dioleoylglycerol [PEG-12-S2-GDO]”, the “stability at low pH” value in series [1] is “degraded quickly”.
